No end group written: not given here. *: point of attachment. FITC = O=C1OC2(c3ccc(O)cc3Oc3cc(O)ccc32)c2ccc(NC(=S)*)cc21; Ahx = NCCCCCC(=O)O
Tests used:
[1] = target: T1, EGFR WT cells (expressing EGFR WT) (Homo sapiens, UniProt P00533); test: Flow cytometry cellular binding of FITC-Ahx-peptides on EGFR WT cells; details: 10 µM FITC-Ahx-peptide, 20 min at RT
T1 construct: host or cells: CLTH/EGFR WT, established from human embryo kidney cells
From the text: (§1) 293T human embryo kidney cells (Sigma; #85120602-1VL), CLTH/EGFR WT cells (Celther; #CL 01010-CLTH) and CLTH/EGFRvIII cells (Celther; #CL 01001-CLTH) were purchased from Sigma and Celther accordingly. CLTH/EGFR WT and CLTH/EGFRvIII cell lines are established from human embryo kidney cells to stably express EGFR WT and EGFRvIII proteins respectively. The three types of cells were maintained in Dulbecco's modified Eagle media (high glucose) supplemented with 10% fetal bovine serum (FBS), 100 U/mL penicillin, […] streptomycin and 1% MEM NEAA. The cells were cultured at 37° C. in a humidified atmosphere containing 5% CO2.
On FITC-Ahx-peptides. Flow cytometry analysis was also performed to quantitatively analyze the binding affinity of the synthetized peptides to the different cell types. […] Cells were analyzed by flow cytometry on a MACSQuant Analyser 16 (Miltenyi Biotec) using the MACS Quantify software to acquire and process the data. LIVE/DEAD™ Fixable dye was excited at 640 nm and fluorescence was collected with the 785/62 nm filter. FITC was excited at 488 nm and fluorescence was collected with the 525/50 nm filter. Viable cells were gated, FITC fluorescence intensity was recorded and the mean fluorescence intensity (MFI) was measured. MFI values were then normalized by substracting MFI from blank cells and dividing by the correction factor determined using a spectrofluorimeter. […]

[2] = system: 293T cells; test: Flow cytometry cellular binding of FITC-Ahx-peptides on 293T cells; parameters: species or system human; details: 10 µM FITC-Ahx-peptide, 20 min at RT
From the text: as §1
(§2) On FITC-Ahx-peptides. Flow cytometry analysis was also performed to quantitatively analyze the binding affinity of the synthetized peptides to the different cell types. Briefly, 293T, CLTH/EGFR WT and CLTH/EGFRvIII cells (100 000 cells, 500 μL) were plated in 24-well plates and incubated overnight at 37° C. in a humidified atmosphere containing 5% CO2 overnight. […] Cells were analyzed by flow cytometry on a MACSQuant Analyser 16 (Miltenyi Biotec) using the MACS Quantify software to acquire and process the data. LIVE/DEAD™ Fixable dye was excited at 640 nm and fluorescence was collected with the 785/62 nm filter. FITC was excited at 488 nm and fluorescence was collected with the 525/50 nm filter. Viable cells were gated, FITC fluorescence intensity was recorded and the mean fluorescence intensity (MFI) was measured. MFI values were then normalized by substracting MFI from blank cells and dividing by the correction factor determined using a spectrofluorimeter.
Since FITC fluorescence can be impacted by the nature of the amino acids in the peptide sequence and since the conjugation rate of FITC in the peptide synthesis can fluctuate, it was needed to measure a correction factor according to the fluorescence intensity of each peptide. As flow cytometry cannot analyze fluorescence of small molecules, a spectrofluorimeter was used in similar conditions (excitation and emission) to the flow cytometry conditions. […] Linear regressions were determined for each peptide. […]

[3] = target: T2, EGFRvIII cells (expressing EGFRvIII) (Homo sapiens, UniProt P00533, DELINS30-297G); test: Flow cytometry cellular binding of FITC-Ahx-peptides on EGFRvIII cells; details: for Normalized MFI vIII: 10 µM FITC-Ahx-peptide, 20 min at RT, EGFRvIII cells
T2 construct: host or cells: CLTH/EGFRvIII, established from human embryo kidney cells
From the text: as §1, §2
Since FITC fluorescence can be impacted by the nature of the amino acids in the peptide sequence and since the conjugation rate of FITC in the peptide synthesis can fluctuate, it was needed to measure a correction factor according to the fluorescence intensity of each peptide. As flow cytometry cannot analyze fluorescence of small molecules, a spectrofluorimeter was used in similar conditions (excitation and emission) to the flow cytometry conditions.

[4] = target: T3, CLTH/EGFRvIII cells expressing hEGFRvIII (Homo sapiens, UniProt P00533, DELINS30-297G); test: Flow cytometry binding of phage displayed peptides on hEGFRvIII cells; details: phage displayed peptide, vs hEGFR WT and 293T cells
T3 construct: host or cells: CLTH/EGFRvIII, established from human embryo kidney cells
From the text: as §1
Cell cultures and flow cytometry experiments with phages or peptides were performed by Institut Mondor de Recherche Biomédicale (IMRB U955, France). […] Anti-IgG1 conjugated to phycoerythrin (PE) (Miltenyi Biotec) was used as a secondary antibody to read the fluorescence of PE. […]
On phages. […] Cells were analyzed by flow cytometry on a MACSQuant Analyser 16 (Miltenyi Biotec) using the MACS Quantify software to acquire and process the data. Viobility™ 405/520 fixable dye was excited at 405 nm and fluorescence was collected with the 525/50 nm filter. PE was excited at 488 nm and fluorescence was collected with the 579/34 nm filter. Viable cells were gated, and PE fluorescence intensity was recorded.

[5] = target: human wild type EGF receptor (EGFR WT) on CLTH/EGFR WT cells (human) (UniProt P00533); test: flow cytometry, 10 uM FITC-Ahx-peptide, 20 min RT, CLTH/EGFR WT cells; MFI minus blank cells, divided by correction factor
[6] = target: human EGF receptor variant III (EGFRvIII) on CLTH/EGFRvIII cells (human) (UniProt P00533); test: flow cytometry, 10 uM FITC-Ahx-peptide, 20 min RT, CLTH/EGFRvIII cells; MFI minus blank cells, divided by correction factor
[7] = target: human EGF receptor variant III (EGFRvIII) on CLTH/EGFRvIII cells (human) (UniProt P00533); test: flow cytometry, normalized MFI on EGFRvIII cells over normalized MFI on EGFR WT cells
[8] = target: T4, human EGF receptor variant III (EGFRvIII) on CLTH/EGFRvIII cells (human, UniProt P00533 25-1210); test: flow cytometry, phage on CLTH/EGFRvIII cells, anti-M13-biotin plus anti-biotin-PE
T4 construct: whole, on cells

Molecule: FITC-Ahx-FALGEA-CONH2: literature control peptide FALGEA (SEQ ID NO:5) linked to the FITC-Ahx tag ({FITC-Ahx}-FALGEA-NH2; SMILES CC(C)C[C@H](NC(=O)[C@H](C)NC(=O)[C@H](Cc1ccccc1)NC(=O)CCCCCNC(=S)Nc1ccc2c(c1)C(=O)OC21c2ccc(O)cc2Oc2cc(O)ccc21)C(=O)NCC(=O)N[C@@H](CCC(=O)O)C(=O)N[C@@H](C)C(N)=O)
- Normalized MFI WT [1]: 0.7
- Normalized MFI 293T [2]: 0.9
- Normalized MFI vIII [3]: 1.8
- Normalized MFI ratio VIII/WT ([3]; normalized MFI of vIII cell line over WT cell line): 2.6

Molecule: FITC-Ahx-VLGREEWSTSW-CONH2: VLGREEWSTSYW conjugated with FITC at the N-terminus via 6-aminohexanoic acid (Ahx) linker
- Normalized MFI 293T [2]: 5.1

Molecule: FITC-Ahx-YHWYGYTPENVI-CONH2: literature control peptide YHWYGYTPENVI (SEQ ID NO:6) linked to the FITC-Ahx tag ({FITC-Ahx}-YHWYGYTPENVI-NH2; SMILES CC[C@H](C)[C@H](NC(=O)[C@@H](NC(=O)[C@H](CC(N)=O)NC(=O)[C@H](CCC(=O)O)NC(=O)[C@@H]1CCCN1C(=O)[C@@H](NC(=O)[C@H](Cc1ccc(O)cc1)NC(=O)CNC(=O)[C@H](Cc1ccc(O)cc1)NC(=O)[C@H](Cc1c[nH]c2ccccc12)NC(=O)[C@H](Cc1c[nH]cn1)NC(=O)[C@H](Cc1ccc(O)cc1)NC(=O)CCCCCNC(=S)Nc1ccc2c(c1)C(=O)OC21c2ccc(O)cc2Oc2cc(O)ccc21)[C@@H](C)O)C(C)C)C(N)=O)
- Normalized MFI WT [1]: 4.5
- Normalized MFI 293T [2]: 7.6
- Normalized MFI vIII [3]: 9.7

Molecule: LEKGNTLSTSTV (phage displayed; Peptide selected from the NGS analysis, not showing specific binding to hEGFRvIII cells in flow cytometry) [peptide selected from NGS analysis of biopanning]
- specific binding to hEGFRvIII [4]: did not show specific binding

Molecule: NESGITRIALQD (Peptide selected from the NGS analysis, not showing specific binding to hEGFRvIII cells in flow cytometry) [peptide selected from NGS analysis of biopanning]
- specific binding to hEGFRvIII [4]: did not show specific binding

B1: FITC-Ahx-…-CONH2 (peptide)
peptide: {FITC-Ahx}-YHWYGYTPENVI-NH2
SMILES: CC[C@H](C)[C@H](NC(=O)[C@@H](NC(=O)[C@H](CC(N)=O)NC(=O)[C@H](CCC(=O)O)NC(=O)[C@@H]1CCCN1C(=O)[C@@H](NC(=O)[C@H](Cc1ccc(O)cc1)NC(=O)CNC(=O)[C@H](Cc1ccc(O)cc1)NC(=O)[C@H](Cc1c[nH]c2ccccc12)NC(=O)[C@H](Cc1c[nH]cn1)NC(=O)[C@H](Cc1ccc(O)cc1)NC(=O)CCCCCNC(=S)Nc1ccc2c(c1)C(=O)OC21c2ccc(O)cc2Oc2cc(O)ccc21)[C@@H](C)O)C(C)C)C(N)=O
- Normalized MFI [5]: 4.5

B2: FITC-Ahx-FALGEA-CONH2 (peptide)
peptide: {FITC-Ahx}-FALGEA-NH2
SMILES: CC(C)C[C@H](NC(=O)[C@H](C)NC(=O)[C@H](Cc1ccccc1)NC(=O)CCCCCNC(=S)Nc1ccc2c(c1)C(=O)OC21c2ccc(O)cc2Oc2cc(O)ccc21)C(=O)NCC(=O)N[C@@H](CCC(=O)O)C(=O)N[C@@H](C)C(N)=O
- Normalized MFI [6]: 1.8
- Normalized MFI ratio vIII/WT [7]: 2.6

B3: LEKGNTLSTSTV phage displayed peptide (peptide)
peptide: LEKGNTLSTSTV
modifications: also: displayed on M13 phage coat protein
notes: not shown: M13 coat protein of the Ph.D.-12 library that carries the peptide
- binding result [8]: no binding

B4: NESGITRIALQD phage displayed peptide (peptide)
peptide: NESGITRIALQD
modifications: also: displayed on M13 phage coat protein
notes: as for B3
- binding result [8]: no binding

Reference: patent US20250368684A1, “NEW EGFRVIII-BINDING PEPTIDES, CONJUGATES AND USES THEREOF” (NANOTHERA BIOSCIENCES, INC., priority 2021, published 2025)
